What was measured:
[1] = target: Tn5 transposase, hyperactive allele carrying the E54K and L372P mutations; assay: SEC; untagged Tn5 on Superdex200 Increase 10/300 GL (Superdex200 10/300 GL at BZH) in 50 mM Tris pH 7.5, 800 mM NaCl, 0.2 mM EDTA, 2 mM DTT, 10% glycerol; last step of the purification
[2] = target: Tn5 transposase, hyperactive allele carrying the R27S, E54K and L372P mutations; assay: as above
[3] = target: Tn5 transposase E54K,L372P (hyperactive) (bacterial transposon Tn5 (expressed in …, UniProt Q46731 1-476, E54K;L372P)); assay: ITC; ITC: 50 mM Tris pH 7.5, 800 mM NaCl, 0.1 mM EDTA, 5% glycerol, 25 C; 100 uM DNA titrated into 4 uM protein; conditions: protein: recombinant; tags: His6-Sumo3 removed by SenP2; one extra N-terminal Ser remains; chain copies: 2; 19 bp duplex with 5' overhang (14 nt for ME-A, 15 nt for ME-B)
[4] = target: Tn5 transposase R27S,E54K,L372P (bacterial transposon Tn5 (expressed in …, UniProt Q46731 1-476, R27S;E54K;L372P)); assay: as above; conditions: protein: recombinant; tags: His6-Sumo3 removed by SenP2; one extra N-terminal Ser remains; chain copies: 2; 19 bp duplex with 5' overhang (14 nt for ME-A, 15 nt for ME-B)

## Tn5 transposase, hyperactive allele carrying the E54K and L372P mutations (enzyme)
[1]
  stoichiometry N: 2

## Tn5 transposase, hyperactive allele carrying the R27S, E54K and L372P mutations (enzyme)
[2]
  stoichiometry N: 2

B1: annealed Tn5 linker oligonucleotide (mosaic end); Tn5ME-A/Tn5MErev or Tn5ME-B/Tn5MErev, not stated which (dsDNA)
DNA 1: TCGTCGGCAGCGTCAGATGTGTATAAGAGACAG
DNA 2: CTGTCTCTTATACACATCT
modifications: 5' phosphate on Tn5MErev
[3]
  Kd: 0.5 ± 0.09 µM
[4]
  Kd: 12.9 ± 2.1 µM

Source: publication PMC5765368, “Large-Scale Low-Cost NGS Library Preparation Using a Robust Tn5 Purification and Tagmentation Protocol”
